In patent US20170015742A1 (published 2017):

Tests used:
VEGF-A = molecular target: T1, VEGF-A (human, UniProt P15692 207-395); test: Biacore SPR; DVD-Ig captured on anti-human Fc, antigen injected
T1 construct: also called hVEGF165
Protocol: (§1) For example, approximately 9000 RU of goat anti-human Fc specific polyclonal antibody (Thermo Fisher Scientific Inc., Rockford, Ill.) diluted in 10 mM sodium acetate (pH 4.5) is directly immobilized across a CM5 research grade biosensor chip using a standard amine coupling kit according to manufacturer's instructions and procedures at 25 μg/ml. Unreacted moieties on the biosensor surface were blocked with ethanolamine. For kinetic analysis, rate equations derived from the 1:1 Langmuir binding model were fitted simultaneously to multiple antigen injections (using global fit analysis) with the use of Scrubber 2 (BioLogic Software), Biacore Biaevaluation 4.0.1 software or Biacore T100 Evaluation software. Purified antibodies or DVD-Ig molecules were diluted in running buffer for capture across goat anti-human Fc reaction surfaces. Antibodies or DVD-Ig molecules to be captured as a ligand (1 μg/ml) were injected over reaction matrices at a flow rate of 10 μl/minute. During the assay, all measurements were referenced against the capture surface alone (i.e., with no captured antibody or DVD-Ig molecule). […] The equilibrium dissociation constant KD (M) of the reaction between antibodies and the target antigen was then calculated from the kinetic rate constants by the following formula: KD=Koff/Kₒₙ. Binding was recorded as a function of time and kinetic rate constants were calculated.

PDGF-BB = molecular target: T2, PDGF-BB (human, UniProt P01127 82-190, limits assumed); test: as above
T2 construct: also called human PDGF-BB; hPDGF-BB
T2 sequence (P01127 82-190 limits assumed): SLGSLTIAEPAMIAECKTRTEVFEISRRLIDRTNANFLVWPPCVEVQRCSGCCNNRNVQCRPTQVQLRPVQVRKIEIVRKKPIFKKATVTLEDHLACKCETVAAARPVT
Protocol: as §1

T1 sequence (P15692 other isoform, or with tags, fused parts or gaps limits assumed): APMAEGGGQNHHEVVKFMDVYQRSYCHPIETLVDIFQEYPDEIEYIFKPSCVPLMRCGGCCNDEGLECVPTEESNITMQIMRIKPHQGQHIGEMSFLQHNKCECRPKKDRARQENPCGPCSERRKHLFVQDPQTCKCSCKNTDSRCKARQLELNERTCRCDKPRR

Row | Binder | Kd (VEGF-A) [nM] | kon (VEGF-A) [M⁻¹ s⁻¹] | Kd (PDGF-BB) [nM] | kon (PDGF-BB) [M⁻¹ s⁻¹]
1 | 9E8.4E-LS-9A8.12 (PR-1577550) (bispecific antibody, human IgG1, kappa, L234A L235A, DVD-Ig: outer hBDI-9E8.4E (PDGF), inner hBEW-9A8.12 (VEGF), linkers HG-long/LK-short; Human IgG1 L234A, L235A, H435A with kappa) heavy: EVTLRESGPALVKPTQTLTLTCTFSGFSLSTYGMGVGWIRQPPGKALEWLANIWWDDDKYYNPSLKNRLTISKDTSKNQVVLTMTNMDPVDTATYYCARIESIGTTYSFDYWGQGTMVTVSSASTKGPSVFPLAPEVQLVQSGAEVKKPGASVKVSCKASGYTFTNYGMYWVRQAPGQGLEWMGWINTETGKPIYADDFKGRVTMTTDTSTSTAYMELRSLRSDDTAVYYCARVDYDGSFWFAYWGQGTLVTVSSASTKGPSVFPLAPSSKSTSGGTAALGCLVKDYFPEPVTVSWNSGALTSGVHTFPAVLQSSGLYSLSSVVTVPSSSLGTQTYICNVNHKPSNTKVDKKVEPKSCDKTHTCPPCPAPEAAGGPSVFLFPPKPKDTLMISRTPEVTCVVVDVSHEDPEVKFNWYVDGVEVHNAKTKPREEQYNSTYRVVSVLTVLHQDWLNGKEYKCKVSNKALPAPIEKTISKAKGQPREPQVYTLPPSREEMTKNQVSLTCLVKGFYPSDIAVEWESNGQPENNYKTTPPVLDSDGSFFLYSKLTVDKSRWQQGNVFSCSVMHEALHNAYTQKSLSLSPGK light: EFVLTQSPGTLSLSPGERATLSCERSSGDIGESYVSWYQQKPGQAPRLVIYADDQRPSGIPDRFSGSGSGTDFTLTISRLEPEDFAVYYCQSYDINIDIVFGGGTKVEIKRTVAAPDTQLTQSPSSLSASVGDRVTITCRASESVSTVIHWYQQKPGKQPKLLIHGASNLESGVPSRFSGSGSGTDFTLTISSLQPEDFATYFCQQHWNDPPTFGQGTKLEIKRTVAAPSVFIFPPSDEQLKSGTASVVCLLNNFYPREAKVQWKVDNALQSGNSQESVTEQDSKDSTYSLSSTLTLSKADYEKHKVYACEVTHQGLSSPVTKSFNRGEC | 0.23 | 640000 | 0.005 | 5e+07
2 | 9A8.12-SL-9E8.4E (PR-1577166) (bispecific antibody, human IgG1, kappa, L234A L235A, DVD-Ig: outer hBEW-9A8.12 (VEGF), inner hBDI-9E8.4E (PDGF), linkers HG-short/LK-long; Human IgG1 L234A, L235A, H435A with kappa) heavy: EVQLVQSGAEVKKPGASVKVSCKASGYTFTNYGMYWVRQAPGQGLEWMGWINTETGKPIYADDFKGRVTMTTDTSTSTAYMELRSLRSDDTAVYYCARVDYDGSFWFAYWGQGTLVTVSSASTKGPEVTLRESGPALVKPTQTLTLTCTFSGFSLSTYGMGVGWIRQPPGKALEWLANIWWDDDKYYNPSLKNRLTISKDTSKNQVVLTMTNMDPVDTATYYCARIESIGTTYSFDYWGQGTMVTVSSASTKGPSVFPLAPSSKSTSGGTAALGCLVKDYFPEPVTVSWNSGALTSGVHTFPAVLQSSGLYSLSSVVTVPSSSLGTQTYICNVNHKPSNTKVDKKVEPKSCDKTHTCPPCPAPEAAGGPSVFLFPPKPKDTLMISRTPEVTCVVVDVSHEDPEVKFNWYVDGVEVHNAKTKPREEQYNSTYRVVSVLTVLHQDWLNGKEYKCKVSNKALPAPIEKTISKAKGQPREPQVYTLPPSREEMTKNQVSLTCLVKGFYPSDIAVEWESNGQPENNYKTTPPVLDSDGSFFLYSKLTVDKSRWQQGNVFSCSVMHEALHNAYTQKSLSLSPGK light: DTQLTQSPSSLSASVGDRVTITCRASESVSTVIHWYQQKPGKQPKLLIHGASNLESGVPSRFSGSGSGTDFTLTISSLQPEDFATYFCQQHWNDPPTFGQGTKLEIKRTVAAPSVFIFPPEFVLTQSPGTLSLSPGERATLSCERSSGDIGESYVSWYQQKPGQAPRLVIYADDQRPSGIPDRFSGSGSGTDFTLTISRLEPEDFAVYYCQSYDINIDIVFGGGTKVEIKRTVAAPSVFIFPPSDEQLKSGTASVVCLLNNFYPREAKVQWKVDNALQSGNSQESVTEQDSKDSTYSLSSTLTLSKADYEKHKVYACEVTHQGLSSPVTKSFNRGEC | 0.47 | 250000 | 0.0083 | 2.7e+07
3 | 9E8.4E-SL-9A8.12 (PR-1577548) (bispecific antibody, human IgG1, kappa, L234A L235A, DVD-Ig: outer hBDI-9E8.4E (PDGF), inner hBEW-9A8.12 (VEGF), linkers HG-short/LK-long; Human IgG1 L234A, L235A, H435A with kappa) heavy: EVTLRESGPALVKPTQTLTLTCTFSGFSLSTYGMGVGWIRQPPGKALEWLANIWWDDDKYYNPSLKNRLTISKDTSKNQVVLTMTNMDPVDTATYYCARIESIGTTYSFDYWGQGTMVTVSSASTKGPEVQLVQSGAEVKKPGASVKVSCKASGYTFTNYGMYWVRQAPGQGLEWMGWINTETGKPIYADDFKGRVTMTTDTSTSTAYMELRSLRSDDTAVYYCARVDYDGSFWFAYWGQGTLVTVSSASTKGPSVFPLAPSSKSTSGGTAALGCLVKDYFPEPVTVSWNSGALTSGVHTFPAVLQSSGLYSLSSVVTVPSSSLGTQTYICNVNHKPSNTKVDKKVEPKSCDKTHTCPPCPAPEAAGGPSVFLFPPKPKDTLMISRTPEVTCVVVDVSHEDPEVKFNWYVDGVEVHNAKTKPREEQYNSTYRVVSVLTVLHQDWLNGKEYKCKVSNKALPAPIEKTISKAKGQPREPQVYTLPPSREEMTKNQVSLTCLVKGFYPSDIAVEWESNGQPENNYKTTPPVLDSDGSFFLYSKLTVDKSRWQQGNVFSCSVMHEALHNAYTQKSLSLSPGK light: EFVLTQSPGTLSLSPGERATLSCERSSGDIGESYVSWYQQKPGQAPRLVIYADDQRPSGIPDRFSGSGSGTDFTLTISRLEPEDFAVYYCQSYDINIDIVFGGGTKVEIKRTVAAPSVFIFPPDTQLTQSPSSLSASVGDRVTITCRASESVSTVIHWYQQKPGKQPKLLIHGASNLESGVPSRFSGSGSGTDFTLTISSLQPEDFATYFCQQHWNDPPTFGQGTKLEIKRTVAAPSVFIFPPSDEQLKSGTASVVCLLNNFYPREAKVQWKVDNALQSGNSQESVTEQDSKDSTYSLSSTLTLSKADYEKHKVYACEVTHQGLSSPVTKSFNRGEC | 0.16 | 2.2e+06 | 0.0064 | 5e+07
4 | 9A8.12-LS-9E8.4E (PR-1577547) (bispecific antibody, human IgG1, kappa, L234A L235A, DVD-Ig: outer hBEW-9A8.12 (VEGF), inner hBDI-9E8.4E (PDGF), linkers HG-long/LK-short; Human IgG1 L234A, L235A, H435A with kappa) heavy: EVQLVQSGAEVKKPGASVKVSCKASGYTFTNYGMYWVRQAPGQGLEWMGWINTETGKPIYADDFKGRVTMTTDTSTSTAYMELRSLRSDDTAVYYCARVDYDGSFWFAYWGQGTLVTVSSASTKGPSVFPLAPEVTLRESGPALVKPTQTLTLTCTFSGFSLSTYGMGVGWIRQPPGKALEWLANIWWDDDKYYNPSLKNRLTISKDTSKNQVVLTMTNMDPVDTATYYCARIESIGTTYSFDYWGQGTMVTVSSASTKGPSVFPLAPSSKSTSGGTAALGCLVKDYFPEPVTVSWNSGALTSGVHTFPAVLQSSGLYSLSSVVTVPSSSLGTQTYICNVNHKPSNTKVDKKVEPKSCDKTHTCPPCPAPEAAGGPSVFLFPPKPKDTLMISRTPEVTCVVVDVSHEDPEVKFNWYVDGVEVHNAKTKPREEQYNSTYRVVSVLTVLHQDWLNGKEYKCKVSNKALPAPIEKTISKAKGQPREPQVYTLPPSREEMTKNQVSLTCLVKGFYPSDIAVEWESNGQPENNYKTTPPVLDSDGSFFLYSKLTVDKSRWQQGNVFSCSVMHEALHNAYTQKSLSLSPGK light: DTQLTQSPSSLSASVGDRVTITCRASESVSTVIHWYQQKPGKQPKLLIHGASNLESGVPSRFSGSGSGTDFTLTISSLQPEDFATYFCQQHWNDPPTFGQGTKLEIKRTVAAPEFVLTQSPGTLSLSPGERATLSCERSSGDIGESYVSWYQQKPGQAPRLVIYADDQRPSGIPDRFSGSGSGTDFTLTISRLEPEDFAVYYCQSYDINIDIVFGGGTKVEIKRTVAAPSVFIFPPSDEQLKSGTASVVCLLNNFYPREAKVQWKVDNALQSGNSQESVTEQDSKDSTYSLSSTLTLSKADYEKHKVYACEVTHQGLSSPVTKSFNRGEC | 0.35 | 270000 | 0.0065 | 3.6e+07
5 | 9E8.4E-GS-9A8.12 (PR-1578137) (bispecific antibody, human IgG1, kappa, L234A L235A, DVD-Ig: outer hBDI-9E8.4E (PDGF), inner hBEW-9A8.12 (VEGF), linkers GS-H10/GS-L10; Human IgG1 L234A, L235A, H435A with kappa) heavy: EVTLRESGPALVKPTQTLTLTCTFSGFSLSTYGMGVGWIRQPPGKALEWLANIWWDDDKYYNPSLKNRLTISKDTSKNQVVLTMTNMDPVDTATYYCARIESIGTTYSFDYWGQGTMVTVSSGGGGSGGGGSEVQLVQSGAEVKKPGASVKVSCKASGYTFTNYGMYWVRQAPGQGLEWMGWINTETGKPIYADDFKGRVTMTTDTSTSTAYMELRSLRSDDTAVYYCARVDYDGSFWFAYWGQGTLVTVSSASTKGPSVFPLAPSSKSTSGGTAALGCLVKDYFPEPVTVSWNSGALTSGVHTFPAVLQSSGLYSLSSVVTVPSSSLGTQTYICNVNHKPSNTKVDKKVEPKSCDKTHTCPPCPAPEAAGGPSVFLFPPKPKDTLMISRTPEVTCVVVDVSHEDPEVKFNWYVDGVEVHNAKTKPREEQYNSTYRVVSVLTVLHQDWLNGKEYKCKVSNKALPAPIEKTISKAKGQPREPQVYTLPPSREEMTKNQVSLTCLVKGFYPSDIAVEWESNGQPENNYKTTPPVLDSDGSFFLYSKLTVDKSRWQQGNVFSCSVMHEALHNAYTQKSLSLSPGK light: EFVLTQSPGTLSLSPGERATLSCERSSGDIGESYVSWYQQKPGQAPRLVIYADDQRPSGIPDRFSGSGSGTDFTLTISRLEPEDFAVYYCQSYDINIDIVFGGGTKVEIKRGGSGGGGSGDTQLTQSPSSLSASVGDRVTITCRASESVSTVIHWYQQKPGKQPKLLIHGASNLESGVPSRFSGSGSGTDFTLTISSLQPEDFATYFCQQHWNDPPTFGQGTKLEIKRTVAAPSVFIFPPSDEQLKSGTASVVCLLNNFYPREAKVQWKVDNALQSGNSQESVTEQDSKDSTYSLSSTLTLSKADYEKHKVYACEVTHQGLSSPVTKSFNRGEC | 0.38 | 470000 | 0.0088 | 5e+07
